The labels stand for the following.
B1: Calcium-binding protein 2, residues 155 to 219; numbered along this chain, Q9NPB3 (parent)
chain: RELRDAFREFDTNGDGRISVGELRAALKALLGERLSQREVDEILQDVDLNGDGLVDFEEFVRMMS

± gives the uncertainty stated by the source.

Among the data in the Human Domainome abundance scans (Beltran et al. 2025) are abundance fitness values, retold here.

This data set covers variants of B1. The data set can be described thus: abundance fitness (aPCA) (normalised: wild type 0, dead -1); higher = more abundant; growth selection in yeast, the domain comes from the species named. The settings on record: Homo sapiens.
In the case of RELRDAFREFDTNGDGRISVGELRAALIALLGERLSQREVDEILQDVDLNGDGLVDFEEFVRMMS [K28I], the abundance fitness was found to be 0.013 ± 0.1.

As for RELRDAFCEFDTNGDGRISVGELRAALKALLGERLSQREVDEILQDVDLNGDGLVDFEEFVRMMS [R8C], the abundance fitness is -0.141 ± 0.23.

As for RELRDCFREFDTNGDGRISVGELRAALKALLGERLSQREVDEILQDVDLNGDGLVDFEEFVRMMS [A6C], the abundance fitness was found to be 0.085 ± 0.1.

As to RELRDAFREFDTNGDGRISVGELRAALKALLGERLSQREVDEILQDVDLNGDWLVDFEEFVRMMS [G53W], the abundance fitness was -0.361 ± 0.069.

Take RELRDAFREFDTNGDGRISVGELRAALKALLPERLSQREVDEILQDVDLNGDGLVDFEEFVRMMS [G32P]: the abundance fitness was -0.026 ± 0.3.

On to RELRDAFREFDTNGDGRISVGELRAALKALLGERLSQREVDEILQDVDLNGDGLDDFEEFVRMMS [V55D], for which the abundance fitness was -1.16 ± 0.09.

Turning to RELRDAFREFDTNGDGRISVGELRAALKALDGERLSQREVDEILQDVDLNGDGLVDFEEFVRMMS [L31D], the abundance fitness was -0.164 ± 0.19.

RELRDAFREFDTNGDGRISVGELRAALKALLGERLSQREVDEILQDVDLNGDGLVRFEEFVRMMS [D56R]: the abundance fitness was -0.088 ± 0.052.

With RELRDAFREFDWNGDGRISVGELRAALKALLGERLSQREVDEILQDVDLNGDGLVDFEEFVRMMS [T12W], the abundance fitness was -0.538 ± 0.11.

As for RELRDAFREFDNNGDGRISVGELRAALKALLGERLSQREVDEILQDVDLNGDGLVDFEEFVRMMS [T12N], the abundance fitness is 0.007 ± 0.22.

For RELRDAFREFDTNGDGRISVGELRAALKALLGERLSQREVDEILQDVDLNMDGLVDFEEFVRMMS [G51M], the abundance fitness amounted to 0.047 ± 0.071.

RELRDAFREFDTNGDGRISVGELRAALKALLGERLSQREVDEILQDVDLNEDGLVDFEEFVRMMS [G51E]: the abundance fitness came out at 0.181 ± 0.063.

CELRDAFREFDTNGDGRISVGELRAALKALLGERLSQREVDEILQDVDLNGDGLVDFEEFVRMMS [R1C]: the abundance fitness is -0.26 ± 0.16.

In the case of RELRDAFREFDTNGDGRISVGELRAALKAQLGERLSQREVDEILQDVDLNGDGLVDFEEFVRMMS [L30Q], the abundance fitness was determined as 0.015 ± 0.094.

As to RELRDAFREFDTNGDGRISVGELRAALKACLGERLSQREVDEILQDVDLNGDGLVDFEEFVRMMS [L30C], the abundance fitness worked out at 0.057 ± 0.092.

On to RELRDAFREFDTNGDGRISVGELRAALKARLGERLSQREVDEILQDVDLNGDGLVDFEEFVRMMS [L30R], for which the abundance fitness is 0.069 ± 0.052.

As for RELRDAFREFDTNRDGRISVGELRAALKALLGERLSQREVDEILQDVDLNGDGLVDFEEFVRMMS [G14R], the abundance fitness is -0.018 ± 0.058.

In the case of RELRDAFREFDTNGDGRISVGELRAALKALLGERLSQREVDEILQDVDLNGDGLVDFEEFVRMSS [M64S], the abundance fitness stood at 0.174 ± 0.08.

For the variant RELRDAFREFDTNGDGRISVGELRAALKALLGERLSQREVDEILQDVELNGDGLVDFEEFVRMMS [D48E], the abundance fitness was found to be 0.131 ± 0.1.

For RELRDAFREFDTNGDGRISVGELRAALKALLGCRLSQREVDEILQDVDLNGDGLVDFEEFVRMMS [E33C], the abundance fitness came to 0.006 ± 0.094.

Consider RELRDAFREFDTNGDGRISVGELRAALKALLGERWSQREVDEILQDVDLNGDGLVDFEEFVRMMS [L35W], for which the abundance fitness came out at 0.045 ± 0.087.

RELRDAFREFDTNGDGRISVGELRAALKALLGERGSQREVDEILQDVDLNGDGLVDFEEFVRMMS [L35G]: the abundance fitness amounted to 0.088 ± 0.069.

Turning to RELRDAFREFDTNGDGRISVGELRAALKALLGERKSQREVDEILQDVDLNGDGLVDFEEFVRMMS [L35K], the abundance fitness came to 0.244 ± 0.17.

Turning to RELRDAFREFDTNGDGRISVGELRAALKALLGERLSQREVDEILQDVDLNGDGLVDFEQFVRMMS [E59Q], the abundance fitness was -0.025 ± 0.097.

Take RELRDAFREFDTNGDGRISVGELRAALKALLGERLSQREYDEILQDVDLNGDGLVDFEEFVRMMS [V40Y]: the abundance fitness is -0.117 ± 0.23.

Turning to RELRDAFREFDTNGDGRISVGELRAATKALLGERLSQREVDEILQDVDLNGDGLVDFEEFVRMMS [L27T], the abundance fitness was found to be 0.064 ± 0.082.

On to RELRDAFREFDTNGDGRISVGELRAALKALLGERLSQREVDEILQDVDLNGDGLVDFTEFVRMMS [E58T], for which the abundance fitness is -0.088 ± 0.078.

As for RELRDAFREFDTNGDGRISVGELRAALKCLLGERLSQREVDEILQDVDLNGDGLVDFEEFVRMMS [A29C], the abundance fitness is -0.31 ± 0.3.

In the case of RELRDAFREFWTNGDGRISVGELRAALKALLGERLSQREVDEILQDVDLNGDGLVDFEEFVRMMS [D11W], the abundance fitness was -0.631 ± 0.095.

Regarding REWRDAFREFDTNGDGRISVGELRAALKALLGERLSQREVDEILQDVDLNGDGLVDFEEFVRMMS [L3W], the abundance fitness is -0.187 ± 0.1.

In the case of RELRDAFREFDTNGDGRISVGELRAALKALLGERLSQREVDEILQDFDLNGDGLVDFEEFVRMMS [V47F], the abundance fitness is -0.15 ± 0.051.

Regarding RELRDAFREFDTNGDGRISVGELRAALKALLGERLSQREVDEILQDYDLNGDGLVDFEEFVRMMS [V47Y], the abundance fitness was -0.01 ± 0.058.

As for RELRDAFREFDTNGDGRISVGELRAALKALLGERLSQREVDEILQWVDLNGDGLVDFEEFVRMMS [D46W], the abundance fitness is -0.446 ± 0.08.

RELRDAFREFDTNGDGRISVGELRAALKALLGERLSQREVDEILQFVDLNGDGLVDFEEFVRMMS [D46F]: the abundance fitness was -0.321 ± 0.11.

In the case of RELRDAFREFDTNGDGRISVGELRAALKALLGERLSQREVDEILQDVDLNGDGLVDFEEFVTMMS [R62T], the abundance fitness was -0.182 ± 0.089.

Take RELRDAFREFDTNGDGRISVGELRAALKALLGERLSQREVDEILQDVDLNGDGLVDFEEFVYMMS [R62Y]: the abundance fitness was -0.2 ± 0.26.

Take RELRDAFREFDTNGDGRISVGELRAALKALLGERLSQIEVDEILQDVDLNGDGLVDFEEFVRMMS [R38I]: the abundance fitness was 0.03 ± 0.069.

On to RELRIAFREFDTNGDGRISVGELRAALKALLGERLSQREVDEILQDVDLNGDGLVDFEEFVRMMS [D5I], for which the abundance fitness is -0.219 ± 0.08.

As to RELRDAFREFDTNGDGRISVGELRAALKALLGERLSQREVDEILQDVDLNGDGLVDFEEFARMMS [V61A], the abundance fitness is -0.054 ± 0.077.

Regarding RELRDAFREFDTNGDGRISVGELRAALKALLGERLSQREVDEILQDVDLNGDGLVDFEEFCRMMS [V61C], the abundance fitness is -0.014 ± 0.39.

Regarding RELRDAFREFDTNGDGEISVGELRAALKALLGERLSQREVDEILQDVDLNGDGLVDFEEFVRMMS [R17E], the abundance fitness was -0.295 ± 0.1.

For RELTDAFREFDTNGDGRISVGELRAALKALLGERLSQREVDEILQDVDLNGDGLVDFEEFVRMMS [R4T], the abundance fitness was -0.138 ± 0.097.
